Experiment: yeast display, Sf9 membrane polyspecificity reagent, FACS + sequencing; frameworks hold sequencing errors
Outline: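 Genes from sorted yeast were amplified by colony PCR, read by MiSeq 2 × 250 sequencing and filtered on CDR length. These cells carried a synthetic nanobody library in Saccharomyces cerevisiae BJ5465 and were sorted by FACS into low and high (top ~1%) gates on anti-HA and streptavidin fluorescence. Polyreactivity is labelled according to the gate of origin.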
In the case of “QVQLVESGGGLVQAGGSLRLSCAASGRIFSYYTMGWYRQAPGKERELVAAISYRGGSTYADSVKGRFTISRDNAKNTVYLQMNSLKPEDTAVYYCAADDLSYVGYYYGYVDDDYWGQGTQVTVSS”, the “polyreactivity (PSR sort gate)” value is reported as “high polyreactivity”.
For “QVQLVESGGGLVQAGGSLRLSCAASGRIFTANAMGWYRQAPGKERELVAAITTSDGTYYADSVKGRFTISRDNAKNTVYLQMNSLKPEDTAVYYCATDTATYPTAMDYWGQGTQVTVSS”, the “polyreactivity (PSR sort gate)” value was “low polyreactivity”.
With “QVQLVESGGGLVQAGGSLRLSCAASGRIFTAYAMGWYRQAPGKERELVARISKRGGSTYYADSVKGRFTISRDNAKNTVYLQMNSLKPEDTAVYYCAKSSWTFGAYNYWGQGTQVTVSS” the “polyreactivity (PSR sort gate)” value was “high polyreactivity”.
With “QVQLVESGGGLVQAGGSLRLSCAASGRIFTAYYAMGWYRQAPGKERELVASISSSGTSTYADSVKGRFTISRDNAKNTVYLQMNSLKPEDTAVYYCATRKLRTRRYDYGYWGQGTQVTVSS” the “polyreactivity (PSR sort gate)” value was “low polyreactivity”.
For “QVQLVESGGGLVQAGGSLRLSCAASGRIFTDYAMGWYRQAPGKEREFVAAINKSGGSTYYADSVKGRFTISRDNAKNTVYLQMNSLKPEDTAVYYCAKPHVIYPSYDYWGQGTQVTVSS”, the “polyreactivity (PSR sort gate)” value was “low polyreactivity”.
In the case of “QVQLVESGGGLVQAGGSLRLSCAASGRIFTDYAMGWYRQAPGKERELVAAINFSGGSTYYADSVKGRFTISRDNAKNTVYLQMHSLKPEDTAVYYCAAQGYYDDMYYWGQGTQVTESS”, the “polyreactivity (PSR sort gate)” value is reported as “high polyreactivity”.
With “QVQLVESGGGLVQAGGSLRLSCAASGRIFTDYAMGWYRQAPGKERELVASITERGGSTDYADSVKGRFTISRDNAKITVYLQMNSLKPEDTAVYYCNARDVTLWEDVYQQDGSGSWGLGTQVTVSS” the “polyreactivity (PSR sort gate)” value was “low polyreactivity”.
For “QVQLVESGGGLVQAGGSLRLSCAASGRIFTGNALGWYRPAPGKERELVAVINRTGGSTYYADSVKGRFTISRDNAKNTVYLQMNSLKPEETAVYSCAAYVPWGWRYGYNYWGQGTQVTVSS”, the “polyreactivity (PSR sort gate)” value was “high polyreactivity”.
In the case of “QVQLVESGGGLVQAGGSLRLSCAASGRIFTGNAMGWYRQAPGKERELVAAISASGGRTYYAYSVKGRFTISRDHAKNTVYLQMNSLKPEDTAVYYCAKVGRTAYTSTYTGVSAYDYWGQGTQVTVSS”, the “polyreactivity (PSR sort gate)” value is reported as “high polyreactivity”.
In the case of “QVQLVESGGGLVQAGGSLRLSCAASGRIFTGNAMGWYRQAPGKERELVAAITFSGGSTYYADSVKGRFTISRDNAKNTVYLQMNSLKPEDTAVYYCATRSAWYGNWYYYWGQGTQVTVSS”, the “polyreactivity (PSR sort gate)” value is reported as “high polyreactivity”.
In the case of “QVQLVESGGGLVQAGGSLRLSCAASGRIFTGNAMGWYRQAPGKERELVATISTGGSTNYADSVKGRFTISRDNAKNTVYLQMNSLKPEDTAVYYCAADTYYGYIIHVEYWGQGTQVTVSS”, the “polyreactivity (PSR sort gate)” value is reported as “low polyreactivity”.
In the case of “QVQLVESGGGLVQAGGSLRLSCAASGRIFTGNAMGWYRQAPGKERELVATITRRGGSTYYADSVKGRFTISRDHAKNTVYLQMNSLKPEDTAVYYCDANRLFSYDKYGYWGQGTQVTVSS”, the “polyreactivity (PSR sort gate)” value is reported as “high polyreactivity”.
With “QVQLVESGGGLVQAGGSLRLSCAASGRIFTGNAMGWYRQAPGKEREWVATITRRGGSTYYADSVKGRFTISRDNAKNTVYLQMNSLKPEDTSVYYCAANRMFSNDKYGYWGQGTQVTVSS” the “polyreactivity (PSR sort gate)” value was “high polyreactivity”.
In the case of “QVQLVESGGGLVQAGGSLRLSCAASGRIFTGNAMGWYRQAPGKESQLVAAITRNGGSTYYADSVKGRFTISRDNEKYTVYLQMNRLKPEDTAVYYCNARYSTTYYGTIYRGMDYWGQGSQVTVSS”, the “polyreactivity (PSR sort gate)” value is reported as “high polyreactivity”.
With “QVQLVESGGGLVQAGGSLRLSCAASGRIFTGNVMGWYRQAPGKERELVAAISYGGGSTNYADSVKGRFTISRDNAKNTVYLQMNSLKPEDTAVYYCAACIKRYLSYYTRYGYWGQGTQVTVSS” the “polyreactivity (PSR sort gate)” value was “high polyreactivity”.
In the case of “QVQLVESGGGLVQAGGSLRLSCAASGRIFTGYAMGWNRQAPGKERELVAAISRGGSTNYADSVKGRFTISRDNAKNSVYLQMNSLKPEDTAVYYCAAGVHWDRGDYWGQGTQVTVSS”, the “polyreactivity (PSR sort gate)” value is reported as “low polyreactivity”.
With “QVQLVESGGGLVQAGGSLRLSCAASGRIFTGYAMGWYRQAPGKEREFVAAITGRGGSTYYADSVKGRFTISRDNAKNTVYLQMNSLKPEDTAVYYCNALPRSPWYYRGDYWGQGTQVTVSS” the “polyreactivity (PSR sort gate)” value was “high polyreactivity”.
With “QVQLVESGGGLVQAGGSLRLSCAASGRIFTHNTMGWYRQAPGKERELVATIDSGGSTNYADSVNGRFTISRDNAKNTVNLQMNSLQPEDTAVYYCAARVRPWRYLMGYWGQGTQVTVSS” the “polyreactivity (PSR sort gate)” value was “low polyreactivity”.
In the case of “QVQLVESGGGLVQAGGSLRLSCAASGRIFTINAMGWYRQAPGKDRELVAAITGSAASTYYADSVKGRFTISRDNAKNTVYLQMYSLKPEDTAVYYSNARPAGRGYNYWGQGTQVTVSS”, the “polyreactivity (PSR sort gate)” value is reported as “high polyreactivity”.
With “QVQLVESGGGLVQAGGSLRLSCAASGRIFTIYAMGWYRQAPGKERELVAAISDRGTRTYYADSVKGRFTISRDNAKNTVYLQMISLKPEVTAVYYCATDALYTYGYDYWGQGTQVTVSS” the “polyreactivity (PSR sort gate)” value was “low polyreactivity”.
In the case of “QVQLVESGGGLVQAGGSLRLSCAASGRIFTIYAMGWYRQAPGKERELVAAISGGGGITNYADSVKGRFTISRDNAKNTVYLQMNSLKPEDTAVYYCAATPRAPRTISLYNYWGQGTQVTVSS”, the “polyreactivity (PSR sort gate)” value is reported as “high polyreactivity”.
For “QVQLVESGGGLVQAGGSLRLSCAASGRIFTIYAMGWYRQEPGKERELVAAITRGGNTNYADSVKGRFTISRDNAKNTVYLLMNSLKPEDTAVYYCAARANVYTKKRDYWGQGTQVTVSS”, the “polyreactivity (PSR sort gate)” value was “high polyreactivity”.
For “QVQLVESGGGLVQAGGSLRLSCAASGRIFTKYAMGWYRQAPGKERELVAAISRGGSNTYYADSVKGRFTISRDIAKNTVYLQMNSLKPEDTAVYYCNKPYSYVGWPGTGPDPKTVYYWGQGTQVTVSS”, the “polyreactivity (PSR sort gate)” value was “high polyreactivity”.
With “QVQLVESGGGLVQAGGSLRLSCAASGRIFTKYAMGWYRQAPGKERELVAAISWSGGRTYYADSVKGRFTISRDNAKNTVYLQMNSLKPEDTAVYYCAAESYKTATLGEDYWGQGTQVTVSS” the “polyreactivity (PSR sort gate)” value was “high polyreactivity”.
In the case of “QVQLVESGGGLVQAGGSLRLSCAASGRIFTNAMGWYTQAPGKQRELVAAISGGSNTYYADSVKGRFTISRDNANNTVYLQMNSLKPEDTAVYYCNTDDQWWDGGYDYWGQGTQVTVSS”, the “polyreactivity (PSR sort gate)” value is reported as “low polyreactivity”.
In the case of “QVQLVESGGGLVQAGGSLRLSCAASGRIFTPYAMGWYRQAPGKEREFVATISFRGDSTYYADSVKGRFTISRDNAKNTVYLQMNSLKPEDTAVYYCNAATNRRTSDYWGQGTQVTVSS”, the “polyreactivity (PSR sort gate)” value is reported as “high polyreactivity”.
For “QVQLVESGGGLVQAGGSLRLSCAASGRIFTQYTMGWYRQAPGKERELVAAINYSGGRTNYADSVKGRFTISRDIAKNTVYLQMNSLKPEDTAVYYCAAGYRRATYGYWGQGTQVTVSS”, the “polyreactivity (PSR sort gate)” value was “high polyreactivity”.
With “QVQLVESGGGLVQAGGSLRLSCAASGRIFTRNAMGWYRQAPGKERELVAAIRWSGDSTYYADSVKGRFTISRDNAKNTVYLQMNSLKPEDTAVYYCAADRQRSHRVGTKGHRVGYWGQGTQVTVSS” the “polyreactivity (PSR sort gate)” value was “high polyreactivity”.
With “QVQLVESGGGLVQAGGSLRLSCAASGRIFTRNTMGWYRQAPGKERELVAAISSGASTYYADSVKGRFTISRDTAKNTVYLQMNSLKPEDTAVYYCATRGYARYWGLGTQVTVSS” the “polyreactivity (PSR sort gate)” value was “low polyreactivity”.
In the case of “QVQLVESGGGLVQAGGSLRLSCAASGRIFTRYAMGSYRQAPGKETEFVAAISGNGGSTYADSVKGRFTISRDNAKNTVYLQMNSLKPEDTAVYYCAAVPYGYGLASDSIFDYWGQGTQVTVSS”, the “polyreactivity (PSR sort gate)” value is reported as “high polyreactivity”.
For “QVQLVESGGGLVQAGGSLRLSCAASGRIFTRYAMGWYRQAPGKERELVAAITSGGSTYYADSVKGRFSISRDNAKNTVYLQMNSLKPEDTAVYYCAAVVISSGVRYDYWGQGTQVTVSS”, the “polyreactivity (PSR sort gate)” value was “high polyreactivity”.
With “QVQLVESGGGLVQAGGSLRLSCAASGRIFTRYGMGWYRQAPGKEREFVAGISWSGGSTFYADSVKGRFTISRDNAKNTVYLQMHSLKPEDTAVYYCAARLYLRRPYEYWGQGTQVTVSS” the “polyreactivity (PSR sort gate)” value was “high polyreactivity”.
For “QVQLVESGGGLVQAGGSLRLSCAASGRIFTRYTMGWYRQAPGKERELVASITSSGSSTYYADSVKGRFTISRDNAKNTVYLQMNSLKPEDTAVYYCAARSRLRYLYDYWGQGTQVTVSS”, the “polyreactivity (PSR sort gate)” value was “high polyreactivity”.
In the case of “QVQLVESGGGLVQAGGSLRLSCAASGRIFTSNTMGWYRQAPGKESELVAAITCSGGSMYYADSVKGRFTISRDNAKNTVYLQMNSLKPEDTEVYDCAADTLGYHYWYDYWGQGTQVTVSS”, the “polyreactivity (PSR sort gate)” value is reported as “low polyreactivity”.
In the case of “QVQLVESGGGLVQAGGSLRLSCAASGRIFTSYAMGWYRQAPGKERELVAAINRGGSTYYADSVKGRFTISRDNAKNTVYLQMNSLKPEDTAVYYCNATPPYNPEFDYWGQGTQVTVSS”, the “polyreactivity (PSR sort gate)” value is reported as “low polyreactivity”.
In the case of “QVQLVESGGGLVQAGGSLRLSCAASGRIFTSYAMGWYRQAPGKERELVATITGSTASTYYADSVKGRFTISRDNAKNTVYLQMNSLKPEDTAVYYCAARSYSTYFRYYYWGQGTQVTVSS”, the “polyreactivity (PSR sort gate)” value is reported as “high polyreactivity”.
For “QVQLVESGGGLVQAGGSLRLSCAASGRIFTTNAMGWYRQAPGKERELVAAITSGASTKYADSVKGRFTISRDNAKNTVYLQMNCLKPEDTAVYYCNAKRGVNLRSNWYSHLRMDHWGQGTQVTVSS”, the “polyreactivity (PSR sort gate)” value was “low polyreactivity”.
For “QVQLVESGGGLVQAGGSLRLSCAASGRIFTTYAKGWYRQAPGKERDLVAAISQNGGSTYYADSVKGRFTISRDNAKNTVYLPMNSLKPEDTAVYYCKAGAAGYYDYDYWGQGTQVTVSS”, the “polyreactivity (PSR sort gate)” value was “low polyreactivity”.
In the case of “QVQLVESGGGLVQAGGSLRLSCAASGRIFTTYAMGWYRQAPGKERELVAAISQNGGSTYYADSVKGRFTISRDNAKNTVYLQMNSLKPEETAVYYCNAGPAGYYDYDYWGQGTQVTVSS”, the “polyreactivity (PSR sort gate)” value is reported as “low polyreactivity”.
With “QVQLVESGGGLVQAGGSLRLSCAASGRIFTTYAMGWYRQAPGKERELVAAISRSGGSTYYADSVKGRFTISRDNAKNTVYLQMNSLKPEDTAVYYCAARRRQEHVGRSSYARYDYWGQGTQVTVSS” the “polyreactivity (PSR sort gate)” value was “high polyreactivity”.
With “QVQLVESGGGLVQAGGSLRLSCAASGRIFTTYAMGWYRQAPGKERELVAAISRSGGSTYYADSVKGRFTISRDNAKNTVYLQMNSLKPEDTAVYYCAAVPTSNSFRSSFYYWGQGTQVTVSS” the “polyreactivity (PSR sort gate)” value was “high polyreactivity”.
For “QVQLVESGGGLVQAGGSLRLSCAASGRIFTTYAMGWYRQAPGKERELVAAITSGGGTYYADSVKGRFTISRDNAKNTVYLQMNSLKPEDTAVYYCNADYSADYYWYYYWGQGTQVTVSS”, the “polyreactivity (PSR sort gate)” value was “low polyreactivity”.
With “QVQLVESGGGLVQAGGSLRLSCAASGRIFTTYAMGWYRQAPGKERELVASISWRVGSTYYADSVKGRFTISRDNAKITVYLQMNSLKPEETAVYYCAAVGGNYHASGLRYYWGQGNQVTVSS” the “polyreactivity (PSR sort gate)” value was “low polyreactivity”.
